Target: Lactobacillus helveticus chlorogenic acid esterase (LhCE), wild type (Lactobacillus helveticus)
Experiment: crystal structure

stoichiometry N: 2
Substance: Lactobacillus helveticus chlorogenic acid esterase (LhCE), wild type (enzyme)

Reference: article doi:10.1101/2023.05.30.542953
